PMC11734750, “Using environment-sensitive tetramethylated thiophene-BODIPY fluorophores in DNA probes for studying effector-induced conformational changes of protein–DNA complexes” (RSC Chemical Biology, 2025)
Values belong to the compound of their own block, whether it stands above or below them.

What was measured:
[1] = target: T1, LutR (LutR-FL, full-length); assay: microscale thermophoresis (label-free); type: binding, Bacillus subtilis; settings: 8 μM LutR; 20 mM Tris-HCl pH 7.5, 250 mM NaCl, 0.02% β-mercaptoethanol; free protein without DNA; effector
T1 construct: full-length residues 2-240, N-terminal His6 and TEV site (pMCSG7-derived vector), His6-tagged protein purified and apparently tag kept; expressed in E. coli BL21(DE3)

[2] = target: DNA-binding domain of LutR (LutR–DBD, residues 2–78) (Bacillus subtilis); assay: SEC; analytical SEC, Superdex 200 10/300 GL, room temperature, PBS pH 7.4; protein 3 mg/ml (33.2 uM as printed); alone and with DNA (protein:DNA 2:1)
[3] = target: Full-length LutR (LutR-FL, amino-acid residues 2–240) (Bacillus subtilis); assay: SEC; analytical SEC, Superdex 200 10/300 GL, room temperature, 20 mM Tris-HCl pH 7.5, 250 mM NaCl, 0.02% beta-mercaptoethanol; protein 2 mg/ml (66.7 uM), DNA 50 uM, protein:DNA 2:1.5; with and without 50 mM L-lactate; dimer told for the DNA-bound protein

Kd [1]: 2300 ± 5 µM
Compound: C[C@H](O)C(=O)O [L-lactate]

stoichiometry N [2]: 2
Compound: DNA-binding domain of LutR (LutR–DBD, residues 2–78) (domain or fragment)

stoichiometry N [3]: 2
Compound: Full-length LutR (LutR-FL, amino-acid residues 2–240) (natural protein)
